The values below come from article PMC5884298.

The target in this data set is thrombin (UniProt P00734;P00734 328-363;364-622). In words: SERS mapping on gold nanopillars; thrombin 0.0873-87.3 nM; complex bands 822, 1140, 1558 cm-1; no Kd given; Thiolated aptamer on gold-coated Si nanopillars, MCH passivation (stated for quadruplex control); PBS pH 7.4 listed; thrombin incubation buffer and temperature.

B1: TBA15 (thiolated thrombin-binding aptamer) (structured_DNA)
DNA: GGTTGGTGTGGTTGG
modifications: 5'-HS-(CH2)6 thiol linker (printed HS-(CH2)5-CH2-D/)
Regarding B1, the binding result was “binds”.
